The target in assay [1] is Recombinant human his-tagged IGF 1R extracellular domain protein (human) (UniProt P08069). Description: SPR, captured IgG, IGF-1R ECD-his analyte, dissociation pH 6.
Assay [2] shares this target. The experiment in a line: SPR, captured IgG, IGF-1R ECD-his analyte, dissociation pH 7.4.
Assay [3] shares this target. Description: SPR, captured IgG, IGF-1R ECD-his analyte, dissociation pH 6; dissociation at pH 6.

A value given as a limit tells only on which side of the number the result lay.

B1: VRDN-02500 (antibody, human IgG1, kappa, V domains shown)
VH: EVQLVQSGGGLVKPGGSLRLSCAASGFTFSSFAMHWVRQAPGKGLEWISVIDTRGATYYADSVKGRFTISRDNAKNSLYLQMNSLRAEDTAVYYCARLGNFYYGMDVWGQGTTVTVSS
VL: EIVLTQSPGTLSVSPGERATLSCRASQSIGSSLHWYQQKPGQAPRLLIKYASQSLSGIPDRFSGSGSGTDFTLTISRLEPEDFAVYYCHQSSRLPHTFGQGTKVEIKR
Turning to B1, in assay [1], the Kd was under 0.0161 nM and the kon worked out at 47500 M⁻¹ s⁻¹. In assay [2], the equilibrium dissociation constant (Kd) was 0.626 nM, the koff came out at 3.89e-05 s⁻¹ and the kon came out at 62100 M⁻¹ s⁻¹. Moreover, in assay [3], the koff was under 1e-06 s⁻¹.

B2: VRDN-02507 (antibody, V domains shown)
VH: EVQLVQSGGGLVKPGGSLRLSCAASGFTFSSHAMHWVRQAPGKGLEWISVIDTRGATYYADSVKGRFTISRDNAKNSLYLQMNSLRAEDTAVYYCARLGNFYYGMDVWGQGTTVTVSS
VL: EIVLTQSPGTLSVSPGERATLSCRASQSIGSSLHWYQQKPGQAPRLLIKYASQSLSGIPDRFSGSGSGTDFTLTISRLEPEDFAVYYCHQSSRLPHTFGQGTKVEIK
Turning to B2, in assay [1], the Kd is 0.0469 nM, the dissociation rate constant (koff) amounted to 1e-06 s⁻¹ and the on-rate (kon) stood at 21300 M⁻¹ s⁻¹. Moreover, in assay [2], the Kd was 0.1 nM, the off-rate (koff) stood at 1.99e-05 s⁻¹ and the kon is 199000 M⁻¹ s⁻¹.

B3: VRDN-02510 (antibody, V domains shown)
VH: EVQLVQSGGGLVKPGGSLRLSCAASGFTFSSFAMHWVRQAPGKGLEWISVIHTRGATYYADSVKGRFTISRDNAKNSLYLQMNSLRAEDTAVYYCARLGNFYYGMDVWGQGTTVTVSS
VL: EIVLTQSPGTLSVSPGERATLSCRASQSIGSSLHWYQQKPGQAPRLLIKYASQSLSGIPDRFSGSGSGTDFTLTISRLEPEDFAVYYCHQSSRLPHTFGQGTKVEIK
With B3, in assay [1], the Kd is 3.84 nM, the off-rate constant (koff) is 0.000116 s⁻¹ and the kon was determined as 30200 M⁻¹ s⁻¹. For the same molecule, in assay [2], the Kd turned out to be 0.214 nM, the off-rate (koff) amounted to 5.3e-05 s⁻¹ and the kon was determined as 248000 M⁻¹ s⁻¹.

B4: VRDN-02526 (antibody, V domains shown)
VH: EVQLVQSGGGLVKPGGSLRLSCAASGFTFSSFAMHWVRQAPGKGLEWISVIDTRGATYYADSVKGRFTISRDNAKNSLYLQMNSLRAEDTAVYYCARLGNFYYGMHVWGQGTTVTVSS
VL: EIVLTQSPGTLSVSPGERATLSCRASQSIGSSLHWYQQKPGQAPRLLIKYASQSLSGIPDRFSGSGSGTDFTLTISRLEPEDFAVYYCHQSSRLPHTFGQGTKVEIK
On to B4, for which, in assay [1], the Kd is under 0.0273 nM and the kon amounted to 36600 M⁻¹ s⁻¹. For the same molecule, in assay [2], the dissociation constant Kd stood at 0.00543 nM, the koff came to 1e-06 s⁻¹ and the kon is 184000 M⁻¹ s⁻¹. Moreover, the koff in assay [3] was under 1e-06 s⁻¹.

B5: VRDN-02513 (antibody, V domains shown)
VH: EVQLVQSGGGLVKPGGSLRLSCAASGFTFSSFAMHWVRQAPGKGLEWISVIDTRHATYYADSVKGRFTISRDNAKNSLYLQMNSLRAEDTAVYYCARLGNFYYGMDVWGQGTTVTVSS
VL: EIVLTQSPGTLSVSPGERATLSCRASQSIGSSLHWYQQKPGQAPRLLIKYASQSLSGIPDRFSGSGSGTDFTLTISRLEPEDFAVYYCHQSSRLPHTFGQGTKVEIK
Regarding B5, in assay [1], the Kd was 0.0322 nM, the koff worked out at 1e-06 s⁻¹ and the on-rate (kon) was determined as 31100 M⁻¹ s⁻¹. Moreover, in assay [2], the equilibrium dissociation constant (Kd) stood at 1.06 nM, the koff worked out at 5.09e-05 s⁻¹ and the kon worked out at 48200 M⁻¹ s⁻¹.

B6: VRDN-02515 (antibody, V domains shown)
VH: EVQLVQSGGGLVKPGGSLRLSCAASGFTFSSFAMHWVRQAPGKGLEWISVIDTRGAHYYADSVKGRFTISRDNAKNSLYLQMNSLRAEDTAVYYCARLGNFYYGMDVWGQGTTVTVSS
VL: EIVLTQSPGTLSVSPGERATLSCRASQSIGSSLHWYQQKPGQAPRLLIKYASQSLSGIPDRFSGSGSGTDFTLTISRLEPEDFAVYYCHQSSRLPHTFGQGTKVEIK
With B6, in assay [1], the Kd stood at 0.692 nM, the koff is 6.92e-05 s⁻¹ and the kon came out at 100000 M⁻¹ s⁻¹. In assay [2], the Kd was found to be 0.571 nM, the dissociation rate constant (koff) is 5.82e-05 s⁻¹ and the kon came to 102000 M⁻¹ s⁻¹.

B7: VRDN-02509 (antibody, V domains shown)
VH: EVQLVQSGGGLVKPGGSLRLSCAASGFTFSSFAHHWVRQAPGKGLEWISVIDTRGATYYADSVKGRFTISRDNAKNSLYLQMNSLRAEDTAVYYCARLGNFYYGMDVWGQGTTVTVSS
VL: EIVLTQSPGTLSVSPGERATLSCRASQSIGSSLHWYQQKPGQAPRLLIKYASQSLSGIPDRFSGSGSGTDFTLTISRLEPEDFAVYYCHQSSRLPHTFGQGTKVEIK
Consider B7, for which, in assay [1], the dissociation constant (Kd) came out at 0.0285 nM, the dissociation rate constant (koff) worked out at 1e-06 s⁻¹ and the kon came to 35100 M⁻¹ s⁻¹. Besides, in assay [2], the Kd is 0.285 nM, the koff stood at 4.81e-05 s⁻¹ and the on-rate constant (kon) amounted to 169000 M⁻¹ s⁻¹.

B8: VRDN-02508 (antibody, V domains shown)
VH: EVQLVQSGGGLVKPGGSLRLSCAASGFTFSSFHMHWVRQAPGKGLEWISVIDTRGATYYADSVKGRFTISRDNAKNSLYLQMNSLRAEDTAVYYCARLGNFYYGMDVWGQGTTVTVSS
VL: EIVLTQSPGTLSVSPGERATLSCRASQSIGSSLHWYQQKPGQAPRLLIKYASQSLSGIPDRFSGSGSGTDFTLTISRLEPEDFAVYYCHQSSRLPHTFGQGTKVEIK
B8: in assay [1], the Kd stood at 3.9 nM, the koff worked out at 0.000207 s⁻¹ and the kon came out at 53100 M⁻¹ s⁻¹. Moreover, in assay [2], the dissociation constant Kd came to 0.00515 nM, the koff came to 1e-06 s⁻¹ and the kon came out at 194000 M⁻¹ s⁻¹.

B9: VRDN-02506 (antibody, V domains shown)
VH: EVQLVQSGGGLVKPGGSLRLSCAASGFTFSHFAMHWVRQAPGKGLEWISVIDTRGATYYADSVKGRFTISRDNAKNSLYLQMNSLRAEDTAVYYCARLGNFYYGMDVWGQGTTVTVSS
VL: EIVLTQSPGTLSVSPGERATLSCRASQSIGSSLHWYQQKPGQAPRLLIKYASQSLSGIPDRFSGSGSGTDFTLTISRLEPEDFAVYYCHQSSRLPHTFGQGTKVEIK
With B9, in assay [1], the Kd stood at 0.0267 nM, the dissociation rate constant (koff) came out at 1e-06 s⁻¹ and the association rate constant (kon) was found to be 37400 M⁻¹ s⁻¹. In assay [2], the equilibrium dissociation constant (Kd) turned out to be 0.0143 nM, the off-rate (koff) was found to be 1e-06 s⁻¹ and the kon is 69900 M⁻¹ s⁻¹.

B10: VRDN-02560 (antibody, V domains shown)
VH: EVQLVQSGGGLVKPGGSLRLSCAASGFTFSSFHMHWVRQAPGKGLEWISVIDTRGATYYADSVKGRFTISRDNAKNSLYLQMNSLRAEDTAVYYCARLGNFYYHMDVWGQGTTVTVSS
VL: EIVLTQSPGTLSVSPGERATLSCRASQSIGSSLHWYQQKPGQAPRLLIKYASQSLSGIPDRFSGSGSGTDFTLTISRLEPEDFAVYYCHQSSRLPHTFGQGTKVEIK
With B10, in assay [1], the Kd amounted to 0.996 nM, the off-rate (koff) is 0.000541 s⁻¹ and the kon amounted to 543000 M⁻¹ s⁻¹. Further, in assay [2], the Kd stood at 0.933 nM, the off-rate (koff) was 0.0336 s⁻¹ and the kon came to 3.61e+07 M⁻¹ s⁻¹.

B11: VRDN-02565 (antibody, V domains shown)
VH: EVQLVQSGGGLVKPGGSLRLSCAASGFTFSSFAMHWVRQAPGKGLEWISVIDTRGATYYADSVKGRFTISRDNAKNSLYLQMNSLRAEDTAVYYCHRLGNFYYHMDVWGQGTTVTVSS
VL: EIVLTQSPGTLSVSPGERATLSCRASQSIGSSLHWYQQKPGQAPRLLIKYASQSLSGIPDRFSGSGSGTDFTLTISRLEPEDFAVYYCHQSSRLPHTFGQGTKVEIK
As for B11, in assay [1], the Kd is 5.77 nM, the dissociation rate constant (koff) turned out to be 0.0198 s⁻¹ and the on-rate constant (kon) came out at 3.43e+06 M⁻¹ s⁻¹. Also, in assay [2], the dissociation constant (Kd) came to 9.12 nM, the off-rate (koff) stood at 0.0243 s⁻¹ and the on-rate constant (kon) was found to be 2.66e+06 M⁻¹ s⁻¹.

B12: VRDN-02567 (antibody, V domains shown)
VH: EVQLVQSGGGLVKPGGSLRLSCAASGFTFSSFAMHWVRQAPGKGLEWISVIDTRGATYYADSVKGRFTISRDNAKNSLYLQMNSLRAEDTAVYYCARLGNFYYHHDVWGQGTTVTVSS
VL: EIVLTQSPGTLSVSPGERATLSCRASQSIGSSLHWYQQKPGQAPRLLIKYASQSLSGIPDRFSGSGSGTDFTLTISRLEPEDFAVYYCHQSSRLPHTFGQGTKVEIK
Regarding B12, in assay [1], the Kd was 5.41 nM, the koff worked out at 0.000569 s⁻¹ and the on-rate constant (kon) worked out at 105000 M⁻¹ s⁻¹. In assay [2], the Kd turned out to be 2.77 nM, the koff stood at 0.000473 s⁻¹ and the on-rate constant (kon) was 171000 M⁻¹ s⁻¹.

B13: VRDN-02566 (antibody, V domains shown)
VH: EVQLVQSGGGLVKPGGSLRLSCAASGFTFSSFAMHWVRQAPGKGLEWISVIDTRGATYYADSVKGRFTISRDNAKNSLYLQMNSLRAEDTAVYYCHRLGNFYYGHDVWGQGTTVTVSS
VL: EIVLTQSPGTLSVSPGERATLSCRASQSIGSSLHWYQQKPGQAPRLLIKYASQSLSGIPDRFSGSGSGTDFTLTISRLEPEDFAVYYCHQSSRLPHTFGQGTKVEIK
As for B13, in assay [1], the Kd worked out at 3 nM, the koff came out at 0.00885 s⁻¹ and the on-rate (kon) is 2.95e+06 M⁻¹ s⁻¹. In addition, in assay [2], the dissociation constant Kd turned out to be 17.4 nM, the koff was found to be 0.0197 s⁻¹ and the kon was 1.14e+06 M⁻¹ s⁻¹.

B14: VRDN-02512 (antibody, V domains shown)
VH: EVQLVQSGGGLVKPGGSLRLSCAASGFTFSSFAMHWVRQAPGKGLEWISVIDTHGATYYADSVKGRFTISRDNAKNSLYLQMNSLRAEDTAVYYCARLGNFYYGMDVWGQGTTVTVSS
VL: EIVLTQSPGTLSVSPGERATLSCRASQSIGSSLHWYQQKPGQAPRLLIKYASQSLSGIPDRFSGSGSGTDFTLTISRLEPEDFAVYYCHQSSRLPHTFGQGTKVEIK
Turning to B14, in assay [1], the Kd worked out at 1.2 nM, the off-rate constant (koff) is 3.96e-05 s⁻¹ and the association rate constant (kon) was found to be 32900 M⁻¹ s⁻¹. For the same molecule, in assay [2], the Kd was determined as 6.08 nM, the koff amounted to 0.000271 s⁻¹ and the kon amounted to 44600 M⁻¹ s⁻¹.

B15: VRDN-02511 (antibody, V domains shown)
VH: EVQLVQSGGGLVKPGGSLRLSCAASGFTFSSFAMHWVRQAPGKGLEWISVIDHRGATYYADSVKGRFTISRDNAKNSLYLQMNSLRAEDTAVYYCARLGNFYYGMDVWGQGTTVTVSS
VL: EIVLTQSPGTLSVSPGERATLSCRASQSIGSSLHWYQQKPGQAPRLLIKYASQSLSGIPDRFSGSGSGTDFTLTISRLEPEDFAVYYCHQSSRLPHTFGQGTKVEIK
With B15, in assay [1], the Kd was 4.28 nM, the koff amounted to 0.000672 s⁻¹ and the kon was 157000 M⁻¹ s⁻¹. Moreover, in assay [2], the Kd was determined as 41.6 nM, the off-rate constant (koff) was determined as 0.0319 s⁻¹ and the kon was 766000 M⁻¹ s⁻¹.

(Values after US20240343814A1.)
